# According to patent publication US20180282397A1 (UNIVERSITY OF SOUTHERN CALIFORNIA, published 2018):
# Residue numbers refer to the chain shown, from its start. Names may count otherwise.
# T1: Rap1B(G12V)-GTP (Pan troglodytes (Chimpanzee), UniProt A5A6J7 1-166, biotinylated (pDW363 vector, BirA))
# T1 construct: also called Rap1B-GTP
# T1 chain: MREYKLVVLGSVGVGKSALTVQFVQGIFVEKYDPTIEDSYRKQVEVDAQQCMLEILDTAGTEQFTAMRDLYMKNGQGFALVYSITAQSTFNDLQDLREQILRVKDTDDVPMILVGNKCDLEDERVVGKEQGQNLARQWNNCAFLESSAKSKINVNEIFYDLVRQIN
# B1: RasIn2 (designed binder)
# chain: MLEVKEASPTSIQISWSIVFGKHDRYYRITYGETGGNSPVQEFTVPGSKSAATISGLKPGVDYTITVYAVTFRWPKRRLVRPISINYRT
# notes: also called Clone 3; radiolabeled RasIn2
# B2: RasIn1 (designed binder)
# chain: B1 chain with S17G, I18P, G21S, K22A, H23Y, D24S, K76M, R77P
# notes: also called radiolabeled RasIn1; parental RasIn1 clone
# B3: RasIn2 maltose binding protein fusion (designed binder, not shown: large carriers)
# chain: B1 chain
# B4: FLAG-tagged RasIn2 (designed binder, not shown: large carriers)
# chain: B1 chain
# notes: also called RasIn2 protein
# B5: RasIn1 maltose binding protein fusion (designed binder, not shown: large carriers)
# chain: B1 chain with S17G, I18P, G21S, K22A, H23Y, D24S, K76M, R77P
# B6: RasIn1 R77A (designed binder)
# chain: B1 chain with S17G, I18P, G21S, K22A, H23Y, D24S, K76M, R77P, R78A
# modifications: [35S]Met radiolabel from in vitro translation; letters unchanged
# notes: FG loop mutant
# B7: Clone 1 (designed binder)
# chain: B1 chain with S17G, I18R, G21S, K22L, H23D, D24S, K76N, R77P
# notes: also called Clone 1 of maturation pool 5
# B8: RasIn1 S24R (designed binder)
# chain: B1 chain with S17G, I18P, G21S, K22A, H23Y, D24R, K76M, R77P
# modifications: [35S]Met radiolabel from in vitro translation; letters unchanged
# notes: Radiolabeled point mutant of RasIn1, BC loop
# B9: RasIn1 R72A (designed binder)
# chain: B1 chain with S17G, I18P, G21S, K22A, H23Y, D24S, R73A, K76M, R77P
# modifications: [35S]Met radiolabel from in vitro translation; letters unchanged
# notes: FG loop mutant
# B10: Clone 4 (designed binder)
# chain: B1 chain with S17G, I18S, G21R, K22A, H23D, D24S, K76R, R77P, V80L, R81W
# notes: also called clone 4 of maturation pool 5
# B11: Clone 2 (designed binder)
# chain: B1 chain with S17E, I18Y, K22R, V80L, R81W
# notes: also called Clone 2 of maturation pool 5
# What was measured:
# Rap1B(G12V)-GTP = target: T1, Rap1B(G12V)-GTP; experiment: radioactive in vitro pull-down of [35S]Met-labelled RasIn2 on bead-immobilised target [c]
# Arf1-GTP = target: T2, Arf1-GTP (UniProt P84077 18-179, biotinylated (pDW363 vector, BirA)); experiment: as above
# T2 construct: range 18-179
# H-Ras(G12V)-GTP [1] = target: T3, H-Ras(G12V)-GTP (Homo sapiens (Human), UniProt P01112 1-166); experiment: radioactive in vitro pull-down on Ras-GTP beads (FIG. 6b)
# T3 construct: also called H-Ras(G12V)-GppNHp; active H-Ras(G12V); not shown: avitag and His tag at the 5' (N-terminal) end
# K-Ras(G12V, Y32R) [2] = target: T4, K-Ras(G12V, Y32R) (human, UniProt P01116-2 1-185, limits assumed, biotinylated (pDW363 vector, BirA)); experiment: radioactive in vitro pull-down of [35S]Met-labelled RasIn2 on bead-immobilised target [d]
# T4 construct: Made by site-directed mutagenesis of pDW363 K-Ras(G12V); also called Y32R Switch I mutant; Y32R mutation
# K-Ras(G12V, Y32R) [3] = target: T4, K-Ras(G12V, Y32R); experiment: radioactive in vitro pull-down of [35S]Met-labelled RasIn1 on bead-immobilised target [b]
# K-Ras(G12V)-GTP [4] = target: T5, K-Ras(G12V)-GTP (human, UniProt P79800 1-166 (Meleagris gallopavo entry), biotinylated in vivo on the avitag (BirA)); experiment: radioactive pull-down of RasIn1 on Ras-GTP beads; competitor Raf-RBD in molar excess
# T5 construct: Active state: immobilised on neutravidin/streptavidin beads and exchanged with GTP or GTPγS; Same protein as m18, other nucleotide; also called K-Ras(G12V)-GTPγS; K-Ras(GTPγS); not shown: avitag and His tag at the 5' (N-terminal) end
# H-Ras(G12V)-GTP [5] = target: T3, H-Ras(G12V)-GTP; experiment: SPR, KD of RasIn2 against KD of the parent clone RasIn1
# H-Ras(G12V)-GTP [6] = target: T3, H-Ras(G12V)-GTP; experiment: SPR, Biacore T100, biotinylated H-Ras(G12V)-GppNHp on streptavidin chip, MBP-intrabody fusion injected, 25 C
# H-Ras(G12V)-GTP [7] = target: T3, H-Ras(G12V)-GTP; experiment: ELISA, biotin-labeled H-Ras(G12V)-GppNHp on streptavidin plate, anti-FLAG detection, OD450
# H-Ras(G12V)-GTP [8] = target: T3, H-Ras(G12V)-GTP; experiment: SPR (Biacore T100), H-Ras(G12V) on a streptavidin chip exchanged with GppNHp, maltose binding protein-intrabody fusion injected [e]
# K-Ras(G12V)-GTP [9] = target: T5, K-Ras(G12V)-GTP; experiment: radioactive in vitro pull-down of [35S]-labelled RasIn1 and point mutants on immobilised K-Ras-GTP [a]
binder,measurement,setting,value
B1,binding result,Rap1B(G12V)-GTP,no binding
same,binding result,Arf1-GTP,no binding
same,% binding (pull-down),H-Ras(G12V)-GTP [1],> 70%
same,binding result,"K-Ras(G12V, Y32R) [2]",no binding
B2,binding result,"K-Ras(G12V, Y32R) [3]",no binding
same,fold decrease of binding with Raf-RBD,K-Ras(G12V)-GTP [4],12 fold
B3,fold increase in affinity versus RasIn1,H-Ras(G12V)-GTP [5],~20 fold
same,Kd,H-Ras(G12V)-GTP [6],120 nM
B4,fold ELISA signal versus Raf-RBD,H-Ras(G12V)-GTP [7],~10 fold
B5,Kd,H-Ras(G12V)-GTP [8],2000 nM
same,Kd,H-Ras(G12V)-GTP [6],2100 nM
B6,binding result,K-Ras(G12V)-GTP [9],no binding
B7,% binding (pull-down),H-Ras(G12V)-GTP [1],> 70%
B8,binding result,K-Ras(G12V)-GTP [9],no binding
B9,binding result,K-Ras(G12V)-GTP [9],no binding
B10,% binding (pull-down),H-Ras(G12V)-GTP [1],> 70%
B11,% binding (pull-down),H-Ras(G12V)-GTP [1],> 70%
